{"source": "patent US20150197564A1", "about": "(Regeneron, published 2015)", "binders": {"B1": {"name": "H4H1276S (antibody, IgG4, V domains shown)", "VH": "EVQLVESGGGVIQPGGSLRLSCAASGFTFDDYAMNWVRQGPGKGLEWVSAISGDGGSTYYADSVKGRFTISRDNSKNSLYLQMNSLRAEDTAFFYCAKDLRNTIFGVVIPDAFDIWGQGTMVTVSS", "VL": "not shown"}}, "key": {"hANGPTL3(17-170)-His [1]": {"target": "T1, hANGPTL3(17-170)-His (human, UniProt Q9Y5C1 17-170)", "T1 construct": "also called N-terminal coiled-coil domain of hANGPTL3 with a C-terminal hexahistidine tag; Human ANGPTL3 (17-170)-His", "T1 sequence": "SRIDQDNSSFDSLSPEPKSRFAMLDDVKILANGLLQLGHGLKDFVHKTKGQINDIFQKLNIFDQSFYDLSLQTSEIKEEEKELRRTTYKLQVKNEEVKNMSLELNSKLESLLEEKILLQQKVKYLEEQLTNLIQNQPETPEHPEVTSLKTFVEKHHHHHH", "assay": "SPR Biacore, antigen captured, 37C, pH 5.75, PBSP", "protocol": "(§1) All kinetic binding experiments were performed at 25° C. or 37° C. on a BIACORE™ T200 label-free molecular interaction instrument (GE Healthcare) using a CM5 sensor chip. Briefly, an antigen capture surface was generated by covalently coupling either an anti-mouse IgG-specific antibody (anti-mFc; GE Healthcare; catalog #BR-1008-38) or an anti-pentahistidine-specific antibody (Qiagen; catalog #34660) to the surface of a CM5 sensor chip using a standard amine coupling method."}, "hANGPTL3(17-460)-His [2]": {"target": "T2, hANGPTL3(17-460)-His (human, UniProt Q9Y5C1 17-460)", "T2 construct": "Bought protein (R&D Systems); also called full-length mature human ANGPTL3 with a C-terminal decahistidine tag; Human ANGPTL3 (17-460)-His", "T2 sequence": "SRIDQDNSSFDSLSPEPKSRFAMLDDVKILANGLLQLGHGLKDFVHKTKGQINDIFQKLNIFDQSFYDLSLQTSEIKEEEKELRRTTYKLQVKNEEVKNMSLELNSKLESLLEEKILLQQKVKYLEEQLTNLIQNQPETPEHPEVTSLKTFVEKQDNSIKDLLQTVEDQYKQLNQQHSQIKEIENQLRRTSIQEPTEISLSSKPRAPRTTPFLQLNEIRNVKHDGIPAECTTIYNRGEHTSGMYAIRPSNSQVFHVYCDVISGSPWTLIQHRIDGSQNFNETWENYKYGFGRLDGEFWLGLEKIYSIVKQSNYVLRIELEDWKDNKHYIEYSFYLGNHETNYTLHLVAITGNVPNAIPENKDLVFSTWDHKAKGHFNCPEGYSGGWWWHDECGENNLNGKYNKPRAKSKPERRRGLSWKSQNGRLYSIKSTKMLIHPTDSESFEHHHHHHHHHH", "assay": "SPR Biacore, antigen captured, 37C, pH 5.75, PBSP", "protocol": "as §1"}, "MfANGPTL3(17-170)-mmH [3]": {"target": "T3, MfANGPTL3(17-170)-mmH (Macaca fascicularis)", "T3 construct": "also called N-terminal coiled-coil domain of ANGPTL3 from Macaca fascicularis with myc-myc-hexahistidine tag; Monkey ANGPTL3 (17-170)-mmH", "T3 chain": "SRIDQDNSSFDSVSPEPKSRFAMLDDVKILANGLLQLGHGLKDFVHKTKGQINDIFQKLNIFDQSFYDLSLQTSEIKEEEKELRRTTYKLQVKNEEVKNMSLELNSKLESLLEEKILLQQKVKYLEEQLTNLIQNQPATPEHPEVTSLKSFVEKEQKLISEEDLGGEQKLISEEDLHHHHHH", "assay": "SPR Biacore, antigen captured, 37C, pH 5.75, PBSP", "protocol": "as §1"}, "hANGPTL3(17-169)-mFc": {"target": "T4, hANGPTL3(17-169)-mFc (human)", "T4 chain": "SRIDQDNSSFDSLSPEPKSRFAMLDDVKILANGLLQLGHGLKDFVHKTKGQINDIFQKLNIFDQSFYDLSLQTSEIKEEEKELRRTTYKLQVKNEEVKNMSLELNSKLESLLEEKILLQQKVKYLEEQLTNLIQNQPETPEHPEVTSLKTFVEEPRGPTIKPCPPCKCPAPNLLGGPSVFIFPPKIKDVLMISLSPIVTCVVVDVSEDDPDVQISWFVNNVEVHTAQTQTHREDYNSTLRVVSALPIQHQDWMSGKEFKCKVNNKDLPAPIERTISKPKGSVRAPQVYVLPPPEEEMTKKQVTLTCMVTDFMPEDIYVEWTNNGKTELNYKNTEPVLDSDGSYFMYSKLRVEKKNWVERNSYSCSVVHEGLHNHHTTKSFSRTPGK", "assay": "cell-based or functional assay"}, "hANGPTL3(17-170)-His [4]": {"target": "T1, hANGPTL3(17-170)-His", "assay": "cell-based or functional assay"}, "mANGPTL3(17-455)-His": {"target": "T5, mANGPTL3(17-455)-His (Mus musculus, UniProt Q9R182 17-455)", "T5 sequence": "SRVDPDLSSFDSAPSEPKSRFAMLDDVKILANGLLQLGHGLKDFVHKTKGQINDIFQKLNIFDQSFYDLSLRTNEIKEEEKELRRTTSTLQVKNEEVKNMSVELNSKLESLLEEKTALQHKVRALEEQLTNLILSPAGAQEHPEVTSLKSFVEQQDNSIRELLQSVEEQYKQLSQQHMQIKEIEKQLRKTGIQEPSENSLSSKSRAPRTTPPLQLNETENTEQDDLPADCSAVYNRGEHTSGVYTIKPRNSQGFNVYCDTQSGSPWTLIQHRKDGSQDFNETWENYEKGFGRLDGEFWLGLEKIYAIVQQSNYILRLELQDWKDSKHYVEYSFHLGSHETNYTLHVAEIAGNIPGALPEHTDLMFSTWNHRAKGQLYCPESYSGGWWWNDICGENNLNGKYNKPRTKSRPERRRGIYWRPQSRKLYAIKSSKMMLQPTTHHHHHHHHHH", "assay": "cell-based or functional assay"}, "hANGPTL3(17-460)-His [5]": {"target": "T2, hANGPTL3(17-460)-His", "assay": "cell-based or functional assay"}, "MfANGPTL3(17-170)-mmH [6]": {"target": "T3, MfANGPTL3(17-170)-mmH", "assay": "cell-based or functional assay"}, "mANGPTL3(17-240)-His": {"target": "T6, mANGPTL3(17-240)-His (Mus musculus, UniProt Q9R182 17-240)", "T6 sequence": "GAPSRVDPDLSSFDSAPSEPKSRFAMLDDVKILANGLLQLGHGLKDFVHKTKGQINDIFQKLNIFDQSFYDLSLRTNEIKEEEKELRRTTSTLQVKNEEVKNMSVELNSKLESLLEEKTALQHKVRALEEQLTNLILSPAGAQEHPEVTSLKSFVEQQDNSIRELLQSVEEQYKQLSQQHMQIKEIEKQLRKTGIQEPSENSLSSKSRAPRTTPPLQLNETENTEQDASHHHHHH", "assay": "cell-based or functional assay"}}}
{"binder": "B1", "values": [{"measurement": "Kd", "setting": "hANGPTL3(17-170)-His [1]", "value": 26.7, "unit": "nM"}, {"measurement": "koff", "setting": "hANGPTL3(17-170)-His [1]", "value": 0.0324, "unit": "s⁻¹"}, {"measurement": "kon", "setting": "hANGPTL3(17-170)-His [1]", "value": "1.22e+06", "unit": "M⁻¹ s⁻¹"}, {"measurement": "t1/2", "setting": "hANGPTL3(17-170)-His [1]", "value": 0.4, "unit": "min"}, {"measurement": "Kd", "setting": "hANGPTL3(17-460)-His [2]", "value": 227, "unit": "nM"}, {"measurement": "koff", "setting": "hANGPTL3(17-460)-His [2]", "value": 0.0107, "unit": "s⁻¹"}, {"measurement": "kon", "setting": "hANGPTL3(17-460)-His [2]", "value": 47100, "unit": "M⁻¹ s⁻¹"}, {"measurement": "t1/2", "setting": "hANGPTL3(17-460)-His [2]", "value": 1.1, "unit": "min"}, {"measurement": "Kd", "setting": "MfANGPTL3(17-170)-mmH [3]", "value": 18.8, "unit": "nM"}, {"measurement": "koff", "setting": "MfANGPTL3(17-170)-mmH [3]", "value": 0.00521, "unit": "s⁻¹"}, {"measurement": "kon", "setting": "MfANGPTL3(17-170)-mmH [3]", "value": 278000, "unit": "M⁻¹ s⁻¹"}, {"measurement": "t1/2", "setting": "MfANGPTL3(17-170)-mmH [3]", "value": 2.2, "unit": "min"}, {"measurement": "IC50 (nM), LPL bioassay, 80 nM constant ANGPTL3", "setting": "hANGPTL3(17-169)-mFc", "value": 21, "unit": "nM"}, {"measurement": "IC50 (nM), LPL bioassay, 100 nM constant ANGPTL3", "setting": "hANGPTL3(17-170)-His [4]", "value": 2.9, "unit": "nM"}, {"measurement": "IC50 (nM), LPL bioassay, 80 nM constant ANGPTL3", "setting": "mANGPTL3(17-455)-His", "value": 14, "unit": "nM"}, {"measurement": "IC50 (nM), LPL bioassay, 80 nM constant ANGPTL3", "setting": "hANGPTL3(17-460)-His [5]", "value": 9.6, "unit": "nM"}, {"measurement": "IC50 (nM), LPL bioassay, 500 nM constant ANGPTL3", "setting": "MfANGPTL3(17-170)-mmH [6]", "value": 10, "unit": "nM"}, {"measurement": "IC50 (nM), LPL bioassay, 500 nM constant ANGPTL3", "setting": "mANGPTL3(17-240)-His", "value": 31, "unit": "nM"}]}
